Measurements as given in patent US10669350B2, “Antigen-binding constructs that bind to and inhibit catalase and/or superoxide dismutase as well as pharmaceutical compositions containing them for tumor therapy” (priority 2015, dated 2020).

T1: human catalase (Homo sapiens, UniProt P04040)
T1 sequence (P04040 2-527 limits assumed): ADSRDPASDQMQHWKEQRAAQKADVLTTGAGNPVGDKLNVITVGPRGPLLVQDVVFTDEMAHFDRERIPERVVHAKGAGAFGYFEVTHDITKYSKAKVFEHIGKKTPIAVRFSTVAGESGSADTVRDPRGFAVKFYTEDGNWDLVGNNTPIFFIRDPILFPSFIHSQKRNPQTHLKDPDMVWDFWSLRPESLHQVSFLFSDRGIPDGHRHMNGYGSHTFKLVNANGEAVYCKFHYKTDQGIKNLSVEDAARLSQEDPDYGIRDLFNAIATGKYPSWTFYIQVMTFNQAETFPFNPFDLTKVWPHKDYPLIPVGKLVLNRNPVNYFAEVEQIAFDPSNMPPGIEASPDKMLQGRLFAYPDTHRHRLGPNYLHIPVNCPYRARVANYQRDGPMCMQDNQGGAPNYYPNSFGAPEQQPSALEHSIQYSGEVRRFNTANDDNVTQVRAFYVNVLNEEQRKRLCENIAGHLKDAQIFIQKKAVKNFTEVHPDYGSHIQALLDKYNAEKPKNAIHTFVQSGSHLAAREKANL


Experiments:
[1] = system: MKN-45 gastric carcinoma cells; assay: Standard preparation for autocrine ROS-controlled apoptosis induction in tumor cells (percentage of apoptotic cells); format: cell-based, human
Description: The experiments shown in FIG. 13-24 were carried out with a standard preparation for the apoptosis induction that is based on the method performed in Heinzelmann and Bauer 2010. The tumor cells used were taken from an optimally growing semi-sealed culture, centrifuged and placed in fresh medium. The test was performed in 96-well cell culture plates with 12 500 MKN-45 cells/100 μl medium or 10 000 SHEP cells/100 μl medium. MKN-45 cells grow in suspension, SHEP cells are adherent. The tests with SHEP cells were started as soon as the cells had grown on. By adding increasing concentrations of single domain VHH fragments that either inhibit catalase or SOD the protection of the tumor cells from their own ROS signaling was annulled so that based on the cell-owned extracellular superoxide anion production the NO/peroxynitrite signal path and the HOCl path (with MKN-45 cells) or in case of the SHEP cells only the NO/peroxynitrite path could start when the cells were incubated at 37° C. The analysis of the signal paths was carried out by the application of inhibitors of the NADPH oxidase (AEBSF), the HOCl scavenger taurine, the peroxynitrite scavenger FeTPPS and the singlet oxygen scavenger histidine. In some experiments for comparison instead of the single domain VHH fragments either recombinant Fab fragments or monoclonal antibodies were applied. This is indicated in the respective illustrations.
Double preparations were examined at the times shown in the text by means of phase contrast reverse microscopy for the percentage of apoptotic cells. Here, the classical apoptosis criteria described and documented in Heinzelmann and Bauer 2010 such as condensation of the nucleus, fragmentation of the nucleus, and membrane blebbing were used. Per single preparation at least 250 randomly selected cells were examined for the presence of apoptosis features. […]

[2] = biological target: T1, human catalase; assay: Check for inhibition (neutralization) of catalase, expressed as ROS-dependent apoptosis induction in cell culture system; format: cell-based; parameters: catalase-neutralizing single domain VHH fragments only neutralize the membranous catalase of tumor cells; endogenous in cells; host or cells: MKN-45 human gastric carcinoma cells
Text: For the determination of the neutralizing effect of single domain VHH or Fab fragments directed against catalase a test system is suitable that is based on the apoptosis-inducing effect of H2O2 and the degradation of H2O2 by catalase. Here, as the cellular test system both non-malignant and malignant cells can be employed. It is only required that apoptosis induction is quantitatively determinable in the selected cell system. As the H2O2 source, H2O2-generating glucose oxidase (GOX) is preferred over the direct addition of H2O2, because the continuous production of H2O2 by GOX (by using glucose from the culture medium of the cells) allows a very precise adjustment of the H2O2 flux. The test system is based on the inhibition of the apoptosis induction by GOX mediated by catalase and the restoration of the apoptosis induction by catalase-neutralizing single domain VHH or Fab fragments. […] For that, in general depending on the cell system, GOX concentrations between 0.1 and 40 mU/ml are required. In a second step, the concentration of human catalase is determined that is just sufficient to abolish the effect achieved by GOX. […] After successful determination of the suitable concentrations of GOX and catalase then the actual experiment for the determination of the catalase-neutralizing effect of single domain VHH or Fab fragments can be performed. For that, the selected catalase concentration is pre-incubated for 20 minutes with selected concentrations of the single domain VHH or Fab fragments to be tested. Subsequently, said mixture together with the concentration of GOX determined to be suitable is added to the cells and apoptosis induction is measured. A reliable neutralizing effect of the single domain VHH or Fab fragments is obtained if the inhibiting effect of the catalase on the GOX-mediated apoptosis induction was abolished by at least 90%, i.e. if 90% of the apoptosis induction value is achieved that is shown in control preparations without addition of catalase. If there is achieved an abolition of the inhibiting effect of catalase of at least 50% there may be assumed a significant inhibiting effect of the tested single domain VHH or Fab fragment. […]
[…] In a second run, by employing the cell culture system described by Heinzelmann and Bauer (Heinzelmann S. and Bauer G. Multiple protective functions of catalase against intercellular apoptosis-inducing ROS signaling of human tumor cells, Biol. Chem. 391, 675-693, 2010) it was checked which one of the single domain VHH fragments binding to catalase actually results in an inhibition of the catalase, what is expressed as ROS-dependent apoptosis induction in the cells. […] The clones underlying the single domain VHH fragments were sequenced by standard methods and the amino acid sequence was determined therefrom.

[3] = biological target: T1, human catalase; assay: ELISA selection of clones binding to human catalase
Text: […] […] In a second run, by employing the cell culture system described by Heinzelmann and Bauer (Heinzelmann S. and Bauer G. Multiple protective functions of catalase against intercellular apoptosis-inducing ROS signaling of human tumor cells, Biol. Chem. 391, 675-693, 2010) it was checked which one of the single domain VHH fragments binding to catalase actually results in an inhibition of the catalase, what is expressed as ROS-dependent apoptosis induction in the cells. […] The clones underlying the single domain VHH fragments were sequenced by standard methods and the amino acid sequence was determined therefrom.

[4] = biological target: T2, human SOD1 (Homo sapiens, UniProt P00441); assay: Check for inhibition (neutralization) of SOD, ROS-dependent apoptosis induction and HOCl control trial; format: cell-based; parameters: endogenous in cells; host or cells: MKN-45 human gastric carcinoma cells
T2 sequence (P00441 2-154 limits assumed): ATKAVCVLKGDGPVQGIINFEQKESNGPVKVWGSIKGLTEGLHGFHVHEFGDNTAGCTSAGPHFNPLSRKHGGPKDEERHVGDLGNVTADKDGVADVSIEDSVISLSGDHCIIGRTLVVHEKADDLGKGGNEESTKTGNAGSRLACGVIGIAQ
Text: Thus, the inhibition of the SOD mediated by single domain VHH or Fab fragments (comparison) can be determined by the fact that the apoptosis induction of tumor cells by exogenously added HOCl is employed as the test system. HOCl in a concentration depending manner induces apoptosis that is based on the interaction between HOCl and superoxide anions that results in the formation of aggressive hydroxyl radicals (Bauer G. HOCl-dependent singlet oxygen and hydroxyl radical generation modulate and induce apoptosis of malignant cells. Anticancer Res 33: 3589-3602, 2013). […] That is, the neutralizing effect of single domain VHH or Fab fragments can be determined by checking whether the inhibition of the apoptosis is abolished again by the single domain VHH or Fab fragments to be tested. The quantitative employment of said test system requires linking several simple steps the skilled person is familiar with. In the first step the concentration of commercially available HOCl (or sodium hypochlorite that sufficiently forms HOCl in medium) is determined that generates a significant quantifiable apoptosis signal within a reasonable trial time (1-2 hours). […] As soon as the first two steps have been satisfactorily performed there can take place the actual test of the inhibiting effect of the single domain VHH or Fab fragments. For that, selected concentrations of the fragments to be tested are pre-incubated for 20 minutes with the optimal concentration of SOD determined in advance in step #2. Subsequently, said mixture is added to the test cells. Thereafter, HOCl is added and the apoptosis induction is determined. […]
The preparation was by immunizing alpacas with human SOD1 (SOD1=Cu/ZnSOD [EC 1.15.1.1] purified from human erythrocytes, obtained from Sigma (Schnelldorf), catalogue number S 9636) under supervision of a veterinary, obtaining RNA from the B cells of the animals, reverse transcription, cloning in E. coli and isolation via the phage display technology. […] In the following, this is expressed as ROS-dependent apoptosis induction. […]

[5] = biological target: T2, human SOD1; assay: ELISA selection of clones binding to human SOD1
Text: The preparation was by immunizing alpacas with human SOD1 (SOD1=Cu/ZnSOD [EC 1.15.1.1] purified from human erythrocytes, obtained from Sigma (Schnelldorf), catalogue number S 9636) under supervision of a veterinary, obtaining RNA from the B cells of the animals, reverse transcription, cloning in E. coli and isolation via the phage display technology. […] In a second run, by employing the cell culture system described by Heinzelmann and Bauer (Multiple protective functions of catalase against intercellular apoptosis-inducing ROS signaling of human tumor cells, Biol. Chem. 391, 675-693, 2010) it was checked which of the single domain VHH fragments binding to SOD actually results in an inhibition of SOD, what is expressed in the tumor system used as ROS-dependent apoptosis induction in the cells, since by the inhibition of SOD the concentration of free superoxide anions dramatically increases due to the absence of the enzymatic dismutation and results in a parallel indirect inhibition of catalase. In the following, this is expressed as ROS-dependent apoptosis induction. In a further control trial the specific inhibition of SOD by recombinant single domain VHH fragments was verified by the fact that the increasing effect of these fragments on apoptosis induction by exogenously added HOCl was examined, as described in Bauer 2013 (HOCl-dependent singlet oxygen and hydroxyl radical generation modulate and induce apoptosis of malignant cells. Anticancer Res 33: 3589-3602, 2013).

| neutralization (inhibition) of human catalase [2] | binding to human catalase [3] | neutralization (inhibition) of human SOD1 [4] | binding to human SOD1 [5] | Molecule | apoptosis induction in the presence of peroxynitrite scavenger FeTPPS ([1]; 25 μM FeTPPS) | apoptosis induction in the presence of NOX1 inhibitor AEBSF ([1]; 100 μM AEBSF) | apoptosis induction in the presence of singlet oxygen scavenger histidine ([1]; 2 mM histidine) | apoptosis induction in the presence of HOCl scavenger taurine ([1]; 50 mM taurine) | apoptosis induction in combination with 0.005 pg/ml of the complementary single domain VHH fragment ([1]; 3.5 hours, FIG. 18) | concentration at which both signal paths overlap ([1]; FIG. 14) [pg/mL] | concentration from which no substantial inhibition by FeTPPS but very strong inhibition by taurine (HOCl path) ([1]; FIG. 14) [pg/mL] | concentrations at which singlet oxygen seems to play a role ([1]; FIG. 14) [pg/mL] | concentration range of the second increase of the apoptosis ([1]; FIG. 14, not inhibited by taurine) [pg/mL] | optimum range of the apoptosis induction ([1]; FIGS. 14A and B, 3.5 hours) [pg/mL] | optimum conc. ([1]; Table 1, concentration necessary for optimum apoptosis induction, taken from FIGS. 13A, 13B, 15A, 15B, 20) [pg/mL] | optimum conc. ([1]; Table 2, FIG. 20 experiment, 3.5 hours) [pg/mL] | apoptosis induction in MKN-45 cells ([1]; increasing concentrations, 3-4 hours at 37° C., 5% CO2) | ROS signaling path induced ([1]; inhibitor analysis) |
| --- | --- | --- | --- | --- | --- | --- | --- | --- | --- | --- | --- | --- | --- | --- | --- | --- | --- | --- |
| neutralize it | bind to human catalase |  |  | aCATcb0972: single domain VHH fragment that binds to and neutralizes human catalase; SEQ ID NO: 10 (protein, catalase binding) VHH: MAQVQLVESGGGLVQAGGSLRLSCAASERTFNTYGMGWFRQAPGKEREFVATISWSGDSTYYADSVKGRFTISRDNAKNTMYLQMNSLKPEDTAVYYCNANSEYGDSYWGQGTQVTVSSKKKHHHHHH | only in the left part of the optimum curve results in a strong inhibition and then, changes the optimum curve of apoptosis induction into a plateau curve | inhibited by the NOX1 inhibitor AEBSF in the entire range of concentrations | does not result in an inhibition of apoptosis, but changes the optimum curve into a plateau curve | does not inhibit in the left range of concentrations of the optimum curve, but then results in a strong inhibition of the apoptosis in the entire further range of the optimum curve | noteworthy synergistic effect | 0.37 | ≥ 0.75 | > 0.75 | ≥ 6.2 | 0 to 6.2 | 0.4 | 0.17 | induces apoptosis in the form of an optimum curve and a subsequent second increase | via the NO/peroxynitrite and HOCl path |
|  |  | do not neutralize it | bind to human SOD1 | aSODcb0987: single domain VHH fragment binding to human SOD1, but not neutralizing; SEQ ID NO: 14 (protein, SOD binding) VHH: MAQVQLVESGGGIVQPGGSLRLSCVASESISEIDAMYWHRQAPGKERELVAGITNDGTRYYADSVKGRFTISRDNAKSTLYLQMNSLKFEDTAMYYCAALPNPPPGYWGQGTQVTVSSKKKHHHHHH |  |  |  |  |  |  |  |  |  |  |  |  |  |  |
